According to US20020164738:

Molecular target: T1, MAGE-3 protein purified from E. coli (pNB202, pRSET-A, N-terminal His tag)
T1 chain: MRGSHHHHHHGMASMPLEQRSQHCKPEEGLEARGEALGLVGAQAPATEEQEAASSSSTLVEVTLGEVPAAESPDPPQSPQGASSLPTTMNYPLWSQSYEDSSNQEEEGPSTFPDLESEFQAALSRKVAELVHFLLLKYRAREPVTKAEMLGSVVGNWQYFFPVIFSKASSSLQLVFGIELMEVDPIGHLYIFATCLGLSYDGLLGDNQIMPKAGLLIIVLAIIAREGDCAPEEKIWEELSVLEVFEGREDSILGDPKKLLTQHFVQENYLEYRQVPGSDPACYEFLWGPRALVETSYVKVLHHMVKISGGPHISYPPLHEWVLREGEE

B1: pro-caspase-12 (48 kDa) synthesized in vitro, radioactively labeled (protein)
chain: MAARRTHERDPIYKIKGLAKDMLDGVFDDLVEKNVLNGDELLKIGESASFILNKAENLVENFLEKTDMAGKIFAGHIANSQEQLSLQFSNDEDDGPQKICTPSSPSESKRKVEDDEMEVNAGLAHESHLMLTAPHGLQSSEVQDTLKLCPRDQFCKIKTERAKEIYPVMEKEGRTRLALIICNKKFDYLFDRDNADTDILNMQELLENLGYSVVLKENLTAQEMETELMQFAGRPEHQSSDSTFLVFMSHGILEGICGVKHRNKKPDVLHDDTIFKIFNNSNCRSLRNKPKILIMQACRGRYNGTIWVSTNKGIATADTDEERVLSCKWNNSITKAHVETDFIAFKSSTPHNISWKVGKTGSLFISKLIDCFKKYCWCYHLEEIFRKVQHSFEVPGELTQMPTIERVSMTRYFYLFPGN
- cleavage of radioactively labeled pro-caspase-12 by mature caspase-12 (SDS-PAGE, autoradiography): Addition of 12 µg of MAGE-3 inhibited the cleavage reaction by caspase-12 almost completely
